Experimental data from patent publication US20070004909A1 (MacroGenics, published 2007).

Tests used:
soluble CD16A (sCD16A) [1] = molecular target: T1, soluble CD16A (sCD16A) (UniProt P08637 17-208, limits assumed); test: sandwich ELISA: mCD32B coated on the plate, diabody preparation diluted 1:25 and 1:50, biotin-conjugated sCD16A as the probe; OD450
T1 construct: extracellular domain; Amine-coupled to the chip in SPR; biotin- or HRP-conjugated as the probe in the sandwich ELISAs; also called FcγRIIIA; sCD16A-Biotin
Description: (§1) The binding of diabody molecules derived from the polyprotein precursor molecule construct 13 (SEQ ID NO:97) to murine CD32B (mCD32B) and soluble CD16A (sCD16A) was assayed in a sandwich ELISA. mCD32B was used as the target protein. The secondary probe was biotin conjugated sCD16A.
(§2) ELISA: The binding of diabody molecules secreted into the medium was assayed by sandwich ELISA as described, supra. Murine CD32B was used to coat the plate, i.e., as the target protein, and HRP-conjugated CD16A was used as the probe for the product of the co-transfection of constructs 15 and 16. mCD32B was used as the target protein and biotin-conjugated CD16A was used as the probe for the recombinant system comprising construct 13.
(§3) Conditioned media from the recombinant expression systems comprising constructs 13 was analysed by sandwich ELISA. The ELISA assay tested the binding of the CBD for specificity to either or both of mCD32B and/or CD16 (FIG. 18). CD32B served as the target antigen and CD16A was used as the secondary probe.

murine CD32B (mCD32B) = molecular target: T2, murine CD32B (mCD32B) (murine, UniProt P08101 30-210, limits assumed); test: as above
T2 construct: Coating protein of the sandwich ELISA for the construct 13 product
T2 sequence (looked up): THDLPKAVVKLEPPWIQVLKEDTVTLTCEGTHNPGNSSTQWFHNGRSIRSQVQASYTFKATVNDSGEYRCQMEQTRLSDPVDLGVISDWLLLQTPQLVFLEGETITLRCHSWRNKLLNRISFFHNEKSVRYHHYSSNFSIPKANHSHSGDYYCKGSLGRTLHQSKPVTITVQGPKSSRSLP
Description: as §1, §2, §3

soluble CD16A (sCD16A) [2] = molecular target: T1, soluble CD16A (sCD16A); test: sandwich ELISA: sCD32B coated on the plate, normalised conditioned medium titrated, HRP-conjugated sCD16A as the probe; OD450
Description: The binding of diabody molecules comprising Fc domains and engineered disulfide bonds between the ‘lighter’ and ‘heavier’ polypeptide chains to sCD32B and sCD16A was assayed in a sandwich ELISA. Diabodies assayed were produced by 3 recombinant expression systems: expressing constructs 1 and 10, expressing constructs 1 and 9, and expressing constructs 11 and 12, respectively. sCD32B was used as the target protein. The secondary probe was HRP conjugated sCD16A. Binding of h3G8 was used as control.
(§4) ELISA: The binding of diabody molecules secreted into the medium was assayed by sandwich ELISA as described, supra. Unless indicated, CD32B was used to coat the plate, i.e., as the target protein, and HRP-conjugated CD16 was used as the probe.

soluble CD16A (sCD16A) [3] = molecular target: T1, soluble CD16A (sCD16A); test: SPR (BIAcore 1000); receptor amine-coupled (~1000 RU), analyte 6.25-200 nM; units not printed (koff/kon implies nM)
Description: (§5) The binding of h2B6-h3G8 CBD, h2B6 CMD and h3G8 CMD to sCD16A, and sCD32B was assayed by SPR analysis. h3G8 scFv was also tested as a control. (A) Binding of to h3G8 CMD sCD16A; (B) Binding of h2B6-h3G8 CBD to sCD16A; (C) Binding of h3G8 scFv to sCD16A; (D) Binding of h2B6 CMD to sCD32B; and (E) Binding of h2B6-h3G8 CBD to sCD32B. Diabodies were injected at concentrations of 6.25-200 nM over receptor surfaces at a flow rate of […] for 180 sec.
(§6) SPR analysis was also used to estimate the kinetic and equilibrium constants of the CMDs and h2B6-h3G8 CBD to sCD16 and/or sCD32B. Results were compared to the same constants calculated for an h3G8 scFV. FIGS. 7A-E show the graphical results of the SPR analysis. The kinetic on and off rates, as well as the equilibrium constant, calculated from the results depicted in FIG. 7 are provided in Table 13.

soluble CD32B (sCD32B) = molecular target: T3, soluble CD32B (sCD32B) (UniProt P31994 43-217, limits assumed); test: as above
T3 construct: extracellular domain; As immobilised on the BIAcore chip; also called FcγRIIB
T3 sequence (looked up): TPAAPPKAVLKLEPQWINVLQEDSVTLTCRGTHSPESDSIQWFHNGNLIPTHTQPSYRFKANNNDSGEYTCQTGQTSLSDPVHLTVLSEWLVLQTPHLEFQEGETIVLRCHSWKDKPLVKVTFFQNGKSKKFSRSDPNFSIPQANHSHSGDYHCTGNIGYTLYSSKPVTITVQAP
Description: as §5, §6

soluble CD32A (sCD32A) = molecular target: T4, soluble CD32A (sCD32A) (UniProt P12318 34-217, limits assumed); test: SPR (BIAcore), sCD32A (negative control receptor) immobilised, diabody injected for 60 s
T4 construct: extracellular domain; Negative control surface in SPR; also called control receptor
T4 sequence (looked up): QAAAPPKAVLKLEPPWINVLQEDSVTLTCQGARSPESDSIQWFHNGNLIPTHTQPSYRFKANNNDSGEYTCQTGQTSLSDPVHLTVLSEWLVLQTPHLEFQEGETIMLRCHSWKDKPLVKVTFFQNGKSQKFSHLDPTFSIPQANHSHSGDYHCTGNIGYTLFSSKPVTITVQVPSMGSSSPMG
Description: The binding of h2B6-h3G8 CBD, h2B6 CMD and h3G8 CMD to sCD16A, sCD32B, and sCD32A (negative control) was assayed by SPR analysis. h3G8 scFv was also tested as a control. (A) Binding to sCD16; (B) Binding to sCD32B and (C) Binding to sCD32A. Diabodies were injected at a concentration of 100 NM, and scFv at a concentration of 200 nM, over receptor surfaces at a flow rate of […] for 60 sec.

sCD32B-Ig = molecular target: T5, sCD32B-Ig (UniProt P31994 43-217); test: sandwich ELISA: sCD32B-Ig coated on the plate, diabody titrated, detected with labelled sCD16A; OD450
T5 construct: extracellular domain; also called CD32B (ELISA coat); sCD32B (target protein of the sandwich ELISAs); not shown: Ig part of sCD32B-Ig is not described
T5 sequence (looked up): T3 sequence (looked up)
Description: The binding of h2B6-h3G8 CBD to sCD32B and sCD16A was assayed in a sandwich ELISA. sCD32B was used as the target protein. The secondary probe was HRP conjugated sCD16A. h3G8 CMD, which binds CD16A, was used as control.
ELISA: The binding of eluted and purified diabodies was characterized by ELISA assay, as described in 5.4.2. 50 ul/well of a 2 ug/ml solution of sCD32B-Ig was coated on 96-well Maxisorp plate in Carbonate buffer at 4° C. over night. The plate was washed three times with PBS-T (PBS, 0.1% Tween 20) and blocked by 0.5% BSA in PBS-T for 30 minutes at room temperature. Subsequently, h2B6-h3G8 CBD, h2B6 CMD, or h3G8 CMD were diluted into the blocking buffer in a serial of two-fold dilutions to generate a range of diabody concentrations, from 0.5 μg/ml to 0.001 μg/ml. The plate was then incubated at room temperature for 1 hour. After washing with PBS-T three times, 50 ul/well of 0.2 ug/ml sCD16A-Biotin was added to each well. The plate was again incubated at room temperature for 1 hour. After washing with PBS-T three times, 50 ul/well of a 1:5000 dilution of HRP conjugated streptavidin (Amersham Pharmacia Biotech) was used for detection. The HRP-streptavidin was allowed to incubate for 45 minutes at room temperature. […] The OD450 nm was read by using a 96-well plate reader and SOFTmax software, and results plotted using GraphPadPrism 3.03 software. […]

soluble CD16A (sCD16A) [4] = molecular target: T1, soluble CD16A (sCD16A); test: sandwich ELISA: sCD32B coated on the plate, normalised conditioned medium titrated, HRP-conjugated sCD16A as the probe; OD450; remark: listed apart in the source
Description: The binding of diabody molecules comprising Fc domains to sCD32B and sCD16A was assayed in a sandwich ELISA. Diabodies assayed were produced by 4 recombinant expression systems: cotransfection of pMGX669+pMGX674, expressing constructs 1 and 6, respectively; cotransfection of pMGX669+pMGX678, expressing constructs 2 and 8, respectively; cotransfection of pMGX677+pMGX674, expressing constructs 7 and 6, respectively; and cotransfection of pMGX677+pMGX678, expressing constructs 7 and 8, respectively. sCD32B was used as the target protein. The secondary probe was HRP conjugated sCD16A.
as §4

T1 sequence (P08637 17-208 limits assumed): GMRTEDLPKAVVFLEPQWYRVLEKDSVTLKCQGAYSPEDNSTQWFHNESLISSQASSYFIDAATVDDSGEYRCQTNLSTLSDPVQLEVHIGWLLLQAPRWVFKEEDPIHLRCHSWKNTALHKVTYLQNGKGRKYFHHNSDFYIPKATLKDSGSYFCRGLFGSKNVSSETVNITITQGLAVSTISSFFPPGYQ

B1: h2.4G2-h3G8 CBD produced from the polyprotein precursor construct 13 (bispecific antibody)
chain 1: DTVLTQSPASLAVSLGQRATISCKASQSVDFDGDSFMNWYQQKPGQPPKLLIYTTSNLESGIPARFSASGSGTDFTLNIHPVEEEDTATYYCQQSNEDPYTFGGGTKLEIKGGGSGGGGEVELVESGGGLVQPGRSLKLSCAASGFTFSDYYMAWVRQAPTTGLEWVASISYDGGDTHYRDSVKGRFTISRDNAKSSLYLQMDSLRSEDTATYYCATETTGIPTGVMDAWGQGVSVTVSSLGGCGGRAKR
chain 2: DVQMTQSPSNLAASPGESVSINCKASESISKYLAWYLQKPGKANKLLMYDGSTLQSGIPSRFSGSGSGTDFTLTIRSLEPEDFGLYYCQQHYEYPATFGSGTKLEIKGGGSGGGGQVTLKESGPGILQPSQTLSLTCSFSGFSLRTSGMGVGWIRQPSGKGLEWLAHIWWDDDKRYNPALKSRLTISKDTSSNQVFLKIASVDTADTATYYCAQINPAWFAYWGQGTLVTVSSLGGC
modifications: Interchain disulfide between the cysteines of the two LGGC sequences.
notes: In the assay it is the heterodimer of the two chains made by furin cleavage; also called pMGX0750 product; diabody molecules derived from the polyprotein precursor; copies: 1 + 1
binding result (soluble CD16A (sCD16A) [1]): binds
binding result (murine CD32B (mCD32B)): binds

B2: diabody of constructs 1 and 9 (pMGX0669+pMGX0719), N-terminal hinge/Fc (bispecific antibody, human IgG1)
chain 1: EIVLTQSPDFQSVTPKEKVTFTCRTSQSIGTNIHWYQQKPDQSPKLLIKEVSESISGVPSRFSGSGSGTDFTLTINSLEAEDAATYYCQQSNTWPFTFGGGTKVEIKGGGSGGGGQVTLRESGPALVKPTQTLTLTCTFSGFSLSTSGMGVGWIRQPPGKALEWLAHIWWDDDKRYNPALKSRLTISKDTSKNQVVLTMTNMDPVDTATYYCAQINPAWFAYWGQGTLVTVSSLGGC
chain 2: not shown
notes: Designed as tetravalent IgG-like diabody; Tested as normalized conditioned medium; also called constructs 9 and 1; constructs 9+1
binding result (soluble CD16A (sCD16A) [2]): binds

B3: h2B6-h3G8 covalent bispecific diabody (CBD) (bispecific antibody)
chain 1: B2 chain 1
chain 2: DIVMTQSPDSLAVSLGERATINCKASQSVDFDGDSFMNWYQQKPGQPPKLLIYTTSNLESGVPDRFSGSGSGTDFTLTISSLQAEDVAVYYCQQSNEDPYTFGQGTKLEIKGGGSGGGGQVQLVQSGAEVKKPGASVKVSCKASGYTFTNYWIHWVRQAPGQGLEWIGVIDPSDTYPNYNKKFKGRVTMTVVVSTSTAYMELRSLRSDDTAVYYCARNGDSDYYSGMDYWGQGTTVTVSSLGGC
notes: also called h2B6-h3G8 CBD; h2B6-h3G8 diabody
Kd (soluble CD16A (sCD16A) [3]): 22.7 nM
Kd (soluble CD32B (sCD32B)): 15 nM
binding result (soluble CD32A (sCD32A)): no binding (tested: 100 nM)
EC50 (read off the curve) (sCD32B-Ig): ~0.04 µg/mL

B4: diabody of constructs 1 and 10 (pMGX0669+pMGX0718), N-terminal Fc (bispecific antibody)
chain 1: B2 chain 1
chain 2: not shown
notes: also called constructs 10 and 1; constructs 10+1; copies: 2 + 2
binding result (soluble CD16A (sCD16A) [2]): binds

B5: tetrameric IgG-like diabody of constructs 7 and 8 (pMGX0677+pMGX0678) (bispecific antibody)
chain 1: EIVLTQSPDFQSVTPKEKVTFTCRTSQSIGTNIHWYQQKPDQSPKLLIKEVSESISGVPSRFSGSGSGTDFTLTINSLEAEDAATYYCQQSNTWPFTFGGGTKVEIKGGGSGGGGQVTLRESGPALVKPTQTLTLTCTFSGFSLSTSGMGVGWIRQPPGKALEWLAHIWWDDDKRYNPALKSRLTISKDTSKNQVVLTMTNMDPVDTATYYCAQINPAWFAYWGQGTLVTVSSLGGCFNRGEC
chain 2: not shown
notes: heavier chain construct 8 (hu3G8VL-hu2B6VH-LGGC-hinge/Fc of human IgG1, A215V); Tested as normalized conditioned medium
binding result (soluble CD16A (sCD16A) [4]): binds

B6: diabody of constructs 11 and 12, C-terminal hinge-Fc and engineered VL/VH cysteines (bispecific antibody, human IgG1)
chain 1: not shown
chain 2: DIVMTQSPDSLAVSLGERATINCKASQSVDFDGDSFMNWYQQKPGQPPKLLIYTTSNLESGVPDRFSGSGSGTDFTLTISSLQAEDVAVYYCQQSNEDPYTFGQGTKLEIKGGGSGGGGQVQLVQSGAEVKKPGASVKVSCKASGYTFTNYWIHWVRQAPGQCLEWIGVIDPSDTYPNYNKKFKGRVTMTVVVSTSTAYMELRSLRSDDTAVYYCARNGDSDYYSGMDYWGQGTTVTVSSFNRGEC
notes: construct 12 = Hu3G8VL-Hu2B6VH(G44C)-FNRGEC; About 150 kDa on the blot
binding result (soluble CD16A (sCD16A) [2]): binds
